Tests used:
human thrombin [1] = biological target: T1, human thrombin (Homo sapiens, UniProt P00734;P00734 328-363;364-622); assay: ITC; 25 C, binding buffer, 1 mM Mg2+; Binding Buffer: 50 mM Tris-HCl, 100 mM NaCl, 1 mM MgCl2, 1 M DTT (so in the source), pH not stated; ITC and CD at 25 C
human thrombin [2] = biological target: T1, human thrombin; assay: CD; 0.5 uM thrombin, 5 uM DNA; no significant spectral change; Binding Buffer: 50 mM Tris-HCl, 100 mM NaCl, 1 mM MgCl2, 1 M DTT (so in the source), pH not stated; ITC and CD at 25 C

| Binder | Kd (human thrombin [1]) [µM] | binding result (human thrombin [2]) |
| --- | --- | --- |
| AS2-3 (61mer; identical to AS7-36 and AS7-83) (structured_DNA) DNA: TACAGGCAGTAAGGCCGTGTCATCAGGATGGGCACTTTCCTAGGGCAGGTTAGCAACAGGA | 3.36 | – |
| TACAGGCAGTAAGGCCGTGTCATCAGGATGGGCACTTTCC (structured_DNA) [40mer AS2-3] | – | no binding |

Reference: paper PMC9917220
